Marks after values point to notes of the source that are not given here.
How the values were obtained:
[1] = cited from earlier work
Experimental: Table 4 ^177Lu-Labeling of PNA-Based Probes and In Vitro Stability | column: stability in PBS, 37 °C, 1 h; stability (×500 EDTA), 37 °C, 1 h

BT-474 cells = test: Cellular processing and retention (acid wash), BT-474; type: cell-based, human; conditions: BT-474 pretreated with 1 nM nonlabeled Z-HP9; labeled secondary probe 10 nM; n = 3
Experimental: (§1) After a 24 h incubation period, the total cell-associated bound activity was recorded as 72.0 ± 1.7 and 65.2 ± 1.8% for [^177Lu]Lu-Z-HP9, and 74.5 ± 0.2 and 55.6 ± 2.4% for [^177Lu]Lu-Z-HP12 on SKOV-3 and BT-474 cells, respectively. The internalized fractions were quantified as 9.7 ± 1.1 and 10.4 ± 0.6% for [^177Lu]Lu-Z-HP9 and [^177Lu]Lu-Z-HP12 after 24 h of incubation. The pattern was similar for both HER2-expressing cell lines, with slow internalization, which is typical for affibody molecules.
(§2) Figure 5 Cellular processing and retention of [^177Lu]Lu-Z-HP9 (A,B), [^177Lu]Lu-Z-HP12 (C,D), [^177Lu]Lu-HP16 (E,F), and [^177Lu]Lu-HP20 (G, H) on SKOV-3 (A,C,E,G) and BT-474 (B,D,F,H) cells after interrupted incubation with labeled compounds. […] The data are presented as an average value from three samples ±SD.
(§3) The pattern of internalization of the labeled secondary probes by cancer cells, which were pretreated with primary probes, was similar to the pattern for primary agents. […]
(§4) A validated acid-wash method[53] was used for cellular processing and retention of radiolabeled probes by SKOV-3 and BT-474 using interrupted incubation procedure. […] The radioactivity in each fraction was measured using an automated gamma spectrometer. The radioactivity of acidic and alkaline fractions was considered as membrane and internalized parts, respectively. […]

SKOV-3 cells = test: Cellular processing and retention (acid wash), SKOV-3; type: cell-based, human; conditions: SKOV-3 pretreated with 1 nM nonlabeled Z-HP9; labeled secondary probe 10 nM; n = 3
Experimental: as §1, §2, §3, §4

[2] = system: HER2-expressing cell lines pretreated with Z-HP9; test: In vitro pretargeting specificity of secondary probes; type: cell-based, human; conditions: Z-HP9 1 nM, labeled secondary probe 10 nM, 1 h 37 °C; n = 3
Experimental: Figure 4 In vitro binding specificity of primary agents, (A) [^177Lu]Lu-Z-HP9 and (B) [^177Lu]Lu-Z-HP12 on SKOV-3 and BT-474 cell lines. […] In the second and third groups, cells were incubated with a large amount of unlabeled anti-HER2 ZHER2:342 affibody molecule and unlabeled secondary agent before the addition of radiolabeled secondary agent, respectively. A radiolabeled secondary agent was added directly to cells in the fourth group without adding a primary agent. The data are presented as an average value from three samples ±SD.
Figure 4C,D further elucidates the specificity of PNA-mediated pretargeting on HER2-expressing cell lines when cells were pretreated with a primary agent. […] These findings collectively affirm the success of the in vitro pretargeting approach.
Thereafter, ^177Lu-secondary probe (10 nM) was added, and cells were incubated for 1 h at 37 °C. After that, cells were treated as mentioned above. […] Then, a radiolabeled secondary probe (10 nM) was added and incubated for 1 h at 37 °C. Further treatment was the same as pretargeting group. […] Further treatment was the same as mentioned above. To evaluate unspecific binding, the radiolabeled secondary probe (10 nM) was added to the cells without any pretreatment with the primary agent and incubated for 1 h at 37 °C. After incubation, the cells were washed and treated as mentioned above.

in vivo = test: in vivo; parameters: species or system BALB/C nu/nu mice; conditions: female, BALB/C nu/nu, mouse, total radioactivity
Text: Animal studies were planned in agreement with EU Directive 2010/63/EU for animal experiments and Swedish national legislation concerning the protection of laboratory animals and were approved by the Ethics Committee for Animal Research in Uppsala, Sweden (animal permission C4/16). HER2-positive xenografts were implanted by subcutaneous injection of 10^7 SKOV-3 cells in the right hind legs of female BALB/C nu/nu mice. Three weeks after implantation, mice were randomized into 8 groups, with 4 mice in each group. At the time of the experiment, the average animal weight was 20 ± 1 g. The average tumor weight was 0.26 ± 0.14 g. The mice were euthanized at predetermined time points by overdose of Ketamine/Xylazine anesthesia, followed by heart puncture. The organs of interest such as blood, lung, liver, spleen, kidney, muscle, bone, and tumor were collected, weighed, and subsequently their radioactivity was measured. Organs and tumor uptake were calculated as the percentage of the injected dose per gram of the sample (%ID/g).
To evaluate in vivo specificity, 2 groups of mice were injected with [^177Lu]Lu-HP16 and [^177Lu]Lu-HP20 without preinjection of the primary agent. At 4 h postinjection, the mice were euthanized and treated as mentioned above.
Table S2. Comparative biodistribution of [177Lu]Lu-HP16 and [177Lu]Lu-HP20 in BALB/C nu/nu mice bearing SKOV3
xenografts at 4 h post-injection without pre-injection of a primary agent. Data are presented as an average of %ID/g ± SD, n
*Significant (p<0.05) difference; **The gastrointestinal (GI) and carcass data are expressed as %ID per whole sample.

SMILES	stability (×500 EDTA), 37 °C, 1 h [1]	stability in PBS, 37 °C, 1 h [1]	total cell-associated bound activity after 24 h (BT-474 cells)	total cell-associated bound activity after 24 h (SKOV-3 cells)	binding to Z-HP9 pretreated cells relative to other treated groups [2]	tissue uptake at 4 h (in vivo; Blood)	tissue uptake at 4 h (in vivo; Bone)	tissue uptake dose at 4 h (in vivo; Carcass)	tissue uptake dose at 4 h (in vivo; GI)	tissue uptake at 4 h (in vivo; Kidney)	tissue uptake at 4 h (in vivo; Liver)	tissue uptake at 4 h (in vivo; Lung)	tissue uptake at 4 h (in vivo; Muscle)	tissue uptake at 4 h (in vivo; Spleen)	tissue uptake at 4 h (in vivo; Tumour)
NC(=O)[C@H](Cc1ccc(O)cc1)NC(=O)[C@H](CCC(=O)O)NC(=O)[C@H](CCC(=O)O)NC(=O)CN(CCNC(=O)CN(CCNC(=O)CN(CCNC(=O)CN(CCNC(=O)CN(CCNC(=O)CN(CCNC(=O)CN(CCNC(=O)CN(CCNC(=O)CN(CCNC(=O)[C@H](CO)NC(=O)[C@H](CO)NC(=O)COCCOCCNC(=O)CN1CCN(CC(=O)O)CCN(CC(=O)O)CCN(CC(=O)O)CC1)C(=O)Cn1cnc2c(N)ncnc21)C(=O)Cn1cnc2c(N)ncnc21)C(=O)Cn1ccc(N)nc1=O)C(=O)Cn1cnc2c(N)ncnc21)C(=O)Cn1ccc(N)nc1=O)C(=O)Cn1ccc(N)nc1=O)C(=O)Cn1cnc2c(N)ncnc21)C(=O)Cn1cnc2c(=O)[nH]c(N)nc21)C(=O)Cn1cnc2c(=O)[nH]c(N)nc21 [[^177Lu]Lu-HP16, metal not drawn]	100 ± 0 ^a	100 ± 0 ^a	26.1 ± 1.2%	55.0 ± 1.0%	11 fold	0.02 ± 0.02 %ID/g	0.04 ± 0.01 %ID/g	1.49 ± 0.42 %ID	0.61 ± 0.16 %ID	4.41 ± 0.61 %ID/g	0.13 ± 0.01 %ID/g	0.1 ± 0.03 %ID/g	0.05 ± 0.02 %ID/g	0.08 ± 0.01 %ID/g	0.09 ± 0.01 %ID/g
NC(=O)[C@H](Cc1ccc(O)cc1)NC(=O)[C@H](CCC(=O)O)NC(=O)[C@H](CCC(=O)O)NC(=O)CN(CCNC(=O)CN(CCNC(=O)CN(CCNC(=O)CN(CCNC(=O)CN(CCNC(=O)CN(CCNC(=O)CN(CCNC(=O)CN(CCNC(=O)[C@H](CO)NC(=O)[C@H](CO)NC(=O)COCCOCCNC(=O)CN1CCN(CC(=O)O)CCN(CC(=O)O)CCN(CC(=O)O)CC1)C(=O)Cn1cnc2c(N)ncnc21)C(=O)Cn1ccc(N)nc1=O)C(=O)Cn1cnc2c(N)ncnc21)C(=O)Cn1ccc(N)nc1=O)C(=O)Cn1ccc(N)nc1=O)C(=O)Cn1cnc2c(N)ncnc21)C(=O)Cn1cnc2c(=O)[nH]c(N)nc21)C(=O)Cn1cnc2c(=O)[nH]c(N)nc21 [[^177Lu]Lu-HP20, metal not drawn]			42.2 ± 2.0%	52.8 ± 0.4%	11 fold	0.01 ± 0.004 %ID/g	0.03 ± 0.02 %ID/g	1.1 ± 0.34 %ID	1.25 ± 1.06 %ID	4.86 ± 0.85 %ID/g	0.15 ± 0.01 %ID/g	0.07 ± 0.01 %ID/g	0.02 ± 0.01 %ID/g	0.07 ± 0.01 %ID/g	0.11 ± 0.03 %ID/g

From PMC11091976, “Shorter Peptide Nucleic Acid Probes Improve Affibody-Mediated Peptide Nucleic Acid-Based Pretargeting” (ACS Pharmacology & Translational Science, 2024)
